# From article PMC7665192, “A natriuretic peptide from Arabidopsis thaliana (AtPNP-A) can modulate catalase 2 activity” (Scientific Reports, 2020)
# Positions of bridges follow the written chain, without caps; N, C: chain ends. No end group written: not given here.
# T1: bovine liver catalase (CAT) (bovine, UniProt P00432 1-527)
# T1 construct: catalase from bovine liver, Sigma C-40; also called bovine CAT; CAT from bovine liver; source: bought: Sigma (C-40)
# T1 sequence (looked up): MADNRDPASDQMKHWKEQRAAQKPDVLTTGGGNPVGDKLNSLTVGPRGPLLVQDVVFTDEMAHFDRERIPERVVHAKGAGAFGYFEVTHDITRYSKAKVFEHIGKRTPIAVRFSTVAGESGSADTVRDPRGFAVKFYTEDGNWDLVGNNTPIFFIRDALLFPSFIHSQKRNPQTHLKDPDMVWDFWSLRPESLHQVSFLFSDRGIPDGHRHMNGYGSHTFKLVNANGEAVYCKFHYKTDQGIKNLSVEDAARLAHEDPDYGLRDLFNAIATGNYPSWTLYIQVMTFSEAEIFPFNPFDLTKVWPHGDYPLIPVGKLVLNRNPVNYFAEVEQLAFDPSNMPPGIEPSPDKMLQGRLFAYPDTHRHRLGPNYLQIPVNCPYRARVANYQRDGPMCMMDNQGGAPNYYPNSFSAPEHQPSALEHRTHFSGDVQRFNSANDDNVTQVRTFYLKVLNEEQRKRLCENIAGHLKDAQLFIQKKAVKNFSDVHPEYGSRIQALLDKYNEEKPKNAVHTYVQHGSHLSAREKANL
# B1: rAtPNP-A: N-terminally 6xHis-tagged AtPNP-A expressed in BL21 (DE3) One Shot E. coli cells (protein)
# chain: AQGKAVYYDPPYTRSACYGTQRETLVVGVKNNLWQNGRACGRRYRVRCIGATYNFDRACTGRTVDVKVVDFCREPCNGDLNLSRDAFRVIANTDAGNIRVVYTPI
# modifications: left off: His6, N-terminal, state not stated
# notes: N-terminally 6xHis-tagged AtPNP-A expressed in BL21 (DE3) One Shot E. coli cells
# B2: NeYFP-fused AtPNP-A: N-terminal (NeYFP) fragment of eYFP followed by AtPNP-A coding region (protein)
# chain: AQGKAVYYDPPYTRSACYGTQRETLVVGVKNNLWQNGRACGRRYRVRCIGATYNFDRACTGRTVDVKVVDFCREPCNGDLNLSRDAFRVIANTDAGNIRVVYTPI
# modifications: left off: NeYFP (N-terminal fragment of eYFP), N-terminal, kept
# B3: CeYFP-AtPNP-A: C-terminal (CeYFP) fragment of eYFP followed by AtPNP-A coding region (protein)
# chain: AQGKAVYYDPPYTRSACYGTQRETLVVGVKNNLWQNGRACGRRYRVRCIGATYNFDRACTGRTVDVKVVDFCREPCNGDLNLSRDAFRVIANTDAGNIRVVYTPI
# modifications: left off: CeYFP (C-terminal fragment of eYFP), N-terminal, kept
# B4: synthetic peptide containing the active region of AtPNP-A (amino acids 33-66) (peptide)
# peptide: PYTRSACYGTQRETLVVGVKNNLWQNGRACGRRY
# modifications: disulfide 7-30 (inferred); also: synthesized with or without C-terminal biotin
# notes: active region of Arabidopsis thaliana plant natriuretic peptide A (AtPNP-A), amino acids 33-66; also called pAtPNP-A; AtPNP-A peptide; source: synthetic peptide (GenScript, purity > 95%)
# Columns and labels:
# CAT2 transcript = conditions: exogenous application; cited from earlier work
# Description: It is also conceivable that modulation of CAT2 activity by AtPNP-A may not only have implications for plant biotic stress tolerance but may also result in changes in responses to abiotic stress. Activity of CAT2 is required for decomposition of photorespiration-derived H2O2 preventing redox perturbation under ambient growth conditions[59] while CAT2 deficiency causes a defective photorespiration phenotype including suppressed growth[58],[59] and accumulation of H2O2 in leaves. During senescence suppression of CAT2 function, mediated by G-BOX BINDING FACTOR1 (GBF1)[76], decreases CAT2 activ ...
# rCAT2 [1] = test: Enzymatic activity of rCAT2, Amplex Red catalase assay; type: biochemical, Arabidopsis thaliana; conditions: 100 nM, Amplex Red catalase assay kit; three independent experiments, P < 0.01
# Procedure: (§1) Enzymatic activity of CAT isozymes and total CAT activities of protein extracted from WT and atpnp-a or cat2-2 mutant lines, when indicated sprayed with 1 nM pAtPNP-A or pScr 20 min before harvesting, were determined zymographically and spectrophotometrically, as described in[56]. Relative quantification of intensity of bands corresponding to different CAT isoforms was performed with ImageJ version 1.48 (https://imagej.nih.gov/ij/). Enzymatic activity of the rCAT2 in the presence of absence of 100 nM rAtPNP-A, pAtPNP-A or pScr were determined with the use of Amplex Red catalase assay kit (Invitrogen) according to the manufacturer’s instructions.
# (§2) Figure 3 AtPNP-A directly interacts with CAT2 to modulate its enzymatic activity in vitro. (a) Zymogram depicting changes in the enzymatic activity of CAT isoforms extracted from wild type (WT) or cat2-2 knockout mutant seedlings in response to 1 nM pAtPNP-A or pScr. Densitometric semi-quantification of bands corresponding to CAT2, normalized to the loading control (dark-coloured band on zymogram) for WT samples treated with 1 nM pAtPNP-A or pScr (mean ± SD, Student’s t-test, n = 3, P < 0.05). […] (b) Total CAT activity in protein extracted from WT seedlings assayed with Amplex Red catalase assay kit in the presence of 1 nM pAtPNP-A, rAtPNP-A, or pScr. […] (c) Enzymatic activity of rCAT2 in the presence of 100 nM pAtPNP-A, rAtPNP-A, or pScr.
# [2] = test system: A. thaliana (Col-0) mesophyll cell protoplasts; test: Mesophyll cell protoplast swelling (volume); type: cell-based, Arabidopsis thaliana; conditions: 100 nM peptide or 1 μg mL^−1 rAtPNP-A, 0.4 M mannitol, 20 min, room temperature, n = 50, P < 0.0001
# Description: Peptides containing amino acid sequence of the active region of AtPNP-A and corresponding scrambled peptides, having the same amino acid composition but in a randomized order (Fig. 1a), with or without C-terminal biotin tag, were synthesized by GenScript (Piscataway, USA) at the purity level > 95% verified with HPLC and their biological activity was verified as described previously.
# Figure 1 Biologically active peptide containing the active region of AtPNP-A protein binds to CAT2. (a) Domain organization of AtPNP-A and the amino acid sequences of C-terminally biotinylated peptides used in affinity chromatography-based experiments—a peptide containing the active site of AtPNP-A (indicated as pAtPNP-A) or the corresponding scrambled peptide (indicated as pScr). Cysteine residues forming a disulfide bond, characteristic to natriuretic peptide (NP)-like molecules, are underlined. SP, signal peptide. (b) Assaying biological activity of the AtPNP-A peptide (pAtPNP-A) and purified recombinant protein (rAtPNP-A). […] In each treatment, 50 randomly selected protoplasts with diameter > 20 µm were included in quantitative analysis (scale bar = 20 µm). Protoplast volume was measured and the data obtained from an exemplar experiment are plotted. […]
# CAT = test: Total CAT activity in protein extracted from WT seedlings; type: biochemical, Arabidopsis thaliana; conditions: 1 nM
# Procedure: as §1, §2
# rCAT2 [3] = test: SPR of CAT2 and AtPNP-A recombinant proteins, CM5 chip, both configurations; type: binding, Arabidopsis thaliana; conditions: amine coupling, 20 °C
# Procedure: N-terminally 6xHis-tagged AtPNP-A and CAT2 proteins were expressed in BL21 (DE3) One Shot E. coli cells (Life Technologies), purified by affinity chromatography with Ni–NTA beads (Qiagen) and HisTrap HP column (GE Healthcare Lifesciences) as described in[21]. The purity of preparations was verified on 12.5% SDS-PAGE, stained with Coomassie Brilliant Blue (Bio-Rad). Protein identities were confirmed in MS analysis, and protein concentration was determined according to the method of Bradford using BSA as a standard.
# SPR experiments were performed at 20 °C on Biacore T100 instrument operated using Biacore T100 control software (version 2.0.2, GE Healthcare Lifesciences) using Series S CM5 or NTA sensor chips as described in[21]. Kinetic analyses were performed at the flow of 100 μL min^−1 with pAtPNP-A (at 3.78 μM and consecutive twofold dilutions; 11 injections included) employed as a ligand and bovine liver CAT (C-40; Sigma) used as an analyte and immobilized on the active surface of the Series S CM5 sensor chip with amine coupling kit, while the surface regeneration was done with solution of glycine, pH 2.0, and the final sensorgram was generated with Scrubber (BioLogic Software Pty Ltd).
# Supplementary Figure S3. In vitro association of AtPNP-A and CAT2 recombinant proteins.
# (a) Recombinant protein preparations used in SPR analyses. […]
# CAT2 = test: Bimolecular fluorescence complementation (BiFC); type: cell-based, Arabidopsis thaliana; conditions: chloroplasts of tobacco leaf protoplasts, NeYFP/CeYFP fusions, mean ± SEM, n = 30, P < 0.0001
# Description: The full-length A. thaliana AtPNP-A (At2g18660) coding region entry plasmid pENTRYAtPNP-A[46] and pCR8/GW-TOPOCAT2 were recombined separately with both pSITE-nEYFP-C1 [GenBank Accession Number GU734651] and pSITE-cEYFP-C1 [GenBank Accession Number GU734652] to create pNeYFP-AtPNP-A, pCeYFP-AtPNP-A, pNeYFP-CAT2 and pCeYFP-CAT2, respectively. Each plasmid has either the N-terminal (NeYFP) or C-terminal (CeYFP) fragment of eYFP followed by either AtPNP-A or CAT2 coding region driven by the 35S plant expression promoter. After sequence was confirmed each plasmid was transformed separately into Agrobacterium tumefaciens strain GV3101 (pMP90). Tobacco leaves were infiltrated as previously described in[50]. Briefly, A. tumefaciens strains grown in 2YT medium were harvested by centrifugation and resuspended in infiltration medium (10 mM MES pH 5.6, 10 mM MgCl2, 150 µM acetosyringone) to a final OD600 of 0.2. Equal volumes of infiltration media containing relevant BiFC strains were mixed and infiltrated into the underside of tobacco leaves using a needleless syringe. Leaves were harvested after 3 days to isolate protoplasts following[51] and then immediately imaged.
# BiFC images were captured at the La Trobe University LIMS BioImaging Facility using a LSM 510 confocal laser scanning microscope (Zeiss), with a × 40/1.2 water immersion objective. The natural red autofluorescence of chlorophyll was used as a marker for chloroplasts. Excitation/emission wavelengths were 488/505–530 nm for YFP and 561/650 nm long pass for red fluorescence. At least three images containing one or more protoplasts were taken for each of the plasmid construct combinations. Each image captured three separate filter scans, including YFP, red fluorescence and bright field. Post-processing of images was performed with ImageJ version 1.48 software (https://imagej.nih.gov/ij/). For each image the contrast for each panel was set at automatic contrast. A merged image was generated for reference with a 10 µm scale bar. The red fluorescence only panel was used to encircle ten chloroplasts as region of interest (ROI), then the YFP fluorescence (BiFC) calculated for each ROI was divided by the red fluorescence calculated for the same ROI. All BiFC/red fluorescence points were plotted using GraphPadPrism7 (GraphPadSoftware). Mean and standard error were calculated for each BiFC combination. All statistical analyses were performed using GraphPadPrism7.
# Figure 4 AtPNP-A interacts with CAT2 in vivo. […] Exemplar merged images of protoplasts isolated from a leaf infiltrated with different combinations of N- or C-terminally tagged CAT2 and AtPNP-A are shown. (g) BiFC/Red fluorescence chloroplast analysis with mean ± SEM in pink.
# [4] = biological target: T1, bovine liver catalase (CAT); test: SPR; Biacore T100, 20 °C; bovine liver CAT immobilised by amine coupling on a CM5 chip; pAtPNP-A at 3.78 μM and consecutive twofold dilutions, 11 injections, flow 100 μL/min; regeneration with glycine pH 2.0; kinetic fit with mass transfer term; conditions: both partners purified
molecule,measurement,setting,value
O=C(O)c1ccccc1O [SA],CAT2 transcript,CAT2 transcript,Increases in CAT2 transcript
B1,In vitro enzymatic activity of rCAT2,rCAT2 [1],significantly enhanced
same,Protoplast swelling response (volume),[2],comparable to that elicited by an equimolar amount of the recombinant AtPNP-A (rAtPNP-A)
same,Total CAT activity of protein extracts,"CAT; WT seedling protein, Amplex Red kit, mean ± SD, n = 3, P < 0.05",elevated total CAT activity
same,H2O2 breakdown by WT seedling protein extract,"CAT; total protein extracted from WT seedlings, n = 3",more rapid H2O2 breakdown
same,SPR binding of recombinant AtPNP-A to CAT2,rCAT2 [3],bind specifically to CAT2
B2,"BiFC / Red fluorescence signal, interaction with CAT2",CAT2,Lower BiFC/fluorescence signal
B3,"BiFC / Red fluorescence signal, interaction with CAT2",CAT2,significantly higher
same,"BiFC / Red fluorescence signal, interaction with CAT2",CAT2; listed as CeYFP-tagged AtPNP-A,greatest BiFC / Red fluorescence signal
B4,koff,[4],0.000941 s⁻¹
same,kon,[4],10900 M⁻¹ s⁻¹
